Source: publication PMC5750328, “Study on oligomerization of glutamate decarboxylase from Lactobacillus brevis using asymmetrical flow field-flow fractionation (AF4) with light scattering techniques” (Analytical and Bioanalytical Chemistry, 2017)

Assays:
[1] = biological target: the molecule itself; test: asymmetrical flow field-flow fractionation with UV, MALS and dRI detection (AF4-UV-MALS-dRI); self-association; carrier liquid 10 mM citrate-phosphate buffer pH 6, room temperature; relative amounts from deconvoluted UV fractograms at 280 nm
[2] = biological target: the molecule itself; test: asymmetrical flow field-flow fractionation with UV, MALS and dRI detection (AF4-UV-MALS-dRI); self-association; carrier liquid 10 mM citrate-phosphate buffer pH 8, room temperature; relative amounts from deconvoluted UV fractograms at 280 nm

B1: glutamate decarboxylase (LbGadB) from Lactobacillus brevis DSM 1269, recombinant (enzyme, UniProt A9ZM78 1-480, looked up)
chain: MMNKNDQETQQMINNVDLEKTFLGSVEAGQSLPTYTLPDDPMAPDVAAQLVEHYRLNEAKANQNLATFCTTQMEPQADELMKNALNTNAIDKSEYPKTAAMENYCVSMIAHLWGIPDNEKIYDDFIGTSTVGSSEGCMLGGLALLHSWKHRAKAAGFDIEDLHSHKPNLVIMSGYQVVWEKFCTYWNVEMRQVPINGDQVSLDMDHVMDYVDENTIGIIGIEGITYTGSVDDIQTLDNLVTEYNKTATMPVRIHVDAAFGGLFAPFVDGFNPWDFRLKNVVSINVSGHKYGMVYPGLGWIVWRHDTADILPAEMRFQVPYLGKTVDSIAINFSHSGAHISAQYYNFIRFGLSGYKTIMQNVRKVSLKLTAALKTYGIFDILVDGSQLPINCWKLADDAPVGWTLYDLESELAKYGWQVPAYPLPKNRDDVTISRIVVRPSMTMTIADDFLDDLKLAIDGLNHTFGVTTTVDQDNKTTVRS
notes: glutamate decarboxylase LbGadB of Lactobacillus brevis DSM 1269; gene amplified from genomic DNA with a forward primer that holds the ATG (NdeI site) and a reverse primer with an XhoI site, cloned in pET21b; gene deposited as GenBank KX417371; Oligomeric state depends on pH: dimer at pH 7-8, hexamer at pH 6, so copies is left empty; the whole gene appears to have been cloned; Cloning NdeI/XhoI in …
[1]
  stoichiometry N: 6
[2]
  stoichiometry N: 2
